# Reference: the nanobody polyreactivity screen of Harvey et al. (2022)
# Test: yeast display, Sf9 membrane polyspecificity reagent, FACS + sequencing; frameworks hold sequencing errors
# Summary of the method: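 Genes from sorted yeast were amplified by colony PCR, read by MiSeq 2 × 250 sequencing and filtered on CDR length. These cells carried a synthetic nanobody library in Saccharomyces cerevisiae BJ5465 and were sorted by FACS into low and high (top ~1%) gates on anti-HA and streptavidin fluorescence. Polyreactivity is labelled according to the gate of origin.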
row,Sequence,polyreactivity (PSR sort gate)
1,QVQLVESGGGLVQAGGSLRLSCAASGSTFPSNAMGWYRQAPGKERELVAAISSGGRTYYADSVKGRFTISRDNAKNTVYLQMKSLKPEDTAVYYCAADTDRRSPFDYWGQGTQVTVSS,high polyreactivity
2,QVQLVESGGGLVQAGGSLRLSCAASGSTFPSYAMGGYRPAPGKERELVAAINRSGGSTYYADSVKGRFTISRDNAKNTVYLQMNSLKPEDTAVYYCATGLTTGGGYYWGQGTQVTVSS,high polyreactivity
3,QVQLVESGGGLVQAGGSLRLSCAASGSTFPSYAMGWYRQAPGKERELVAAITRSGGRTYYADSVKGRFTISRDNAKNTVYLQMNSLKPEDTAVYYCAADLGRNYDYWGQGTQVTVLS,low polyreactivity
4,QVQLVESGGGLVQAGGSLRLSCAASGSTFPTNAMGWYRQAPGKERELVAAISQRGDSTSYADSVKGRFTISRDNAKNTVYLQMNSLKPEDTAVYYCAARPLYSYSQWGYGYWGQGTQVTVSS,high polyreactivity
5,QVQLVESGGGLVQAGGSLRLSCAASGSTFPTNTMGWYRQAPGKERELVAAITGGGSTYYADSVKGRFTISRDNAKNTVYLQMNSLKPEDTAVYYCAADDSWFYYGYGYWGQGTQVTVSS,low polyreactivity
6,QVQLVESGGGLVQAGGSLRLSCAASGSTFPTYAMGWYRQAPGKERELVAAISFSGARTYYADSVKGRFTISRDNAKNTVYLQMNSLKPEDTAVYYCAKASSYSRRYEYWGQGTQVTVSS,high polyreactivity
7,QVQLVESGGGLVQAGGSLRLSCAASGSTFPVYAMGWYRQAPGKERELVAAISWRGDSTYYADSVKGRFTISRDNAKNTVYLQMNSLKPEDTAVYYCAASTGSVVRRYYYWGQGTQVTVSS,high polyreactivity
8,QVQLVESGGGLVQAGGSLRLSCAASGSTFPVYAMGWYRQAPGKERELVARISSGSSTNYADSVKGRFTNSRDKAKNTVYLQMNSLKPEDTAVSYCAAQTPRFVWQKGPLDSEEYWGQGTQVTVSS,high polyreactivity
9,QVQLVESGGGLVQAGGSLRLSCAASGSTFPVYDMGWYRQAPGKERELVAAITAGVSTNYADSVKGRFTISRDNAKNTVYLQMNSQKPEDTAVYYCAKDFGLLPIRDDYWGQGTQETVSS,low polyreactivity
10,QVQLVESGGGLVQAGGSLRLSCAASGSTFPVYVMGWYRQAPGKERELVATITIVVSTKYADSVKGRFTISRDNAKNTVYLQMNSLKPEDTAVYYCAKDDVYRDSYLVFDGEMDYWGQGTQVTVSS,low polyreactivity
11,QVQLVESGGGLVQAGGSLRLSCAASGSTFPWNAMGWHRQAPGKERELVAAISKSGGRTYYADSVKGRFTISRDNAKNTVYLQMNSLRPEDTAVYYCNALGSLDGRYGYWGQGTQVTVSS,high polyreactivity
12,QVQLVESGGGLVQAGGSLRLSCAASGSTFPWNAMGWYRQAPGKERELVAAISSGGSTNYADSVKGRFTISRDNAKNTVYLQMNSLKPEDTAVYYCNAYYWSDSRGKYDYWGQGTQVTVSS,low polyreactivity
13,QVQLVESGGGLVQAGGSLRLSCAASGSTFPYNAMGWYRQAPGKERELVAAITSAGGTNYADSVKGRFTISRDNAKNTVYLQMNSLKPEDTAVYYCAADGSGYYDWYYYWGQGTQVTVSS,low polyreactivity
14,QVQLVESGGGLVQAGGSLRLSCAASGSTFPYNAMGWYRQAPGKERELVAVITTVGSTYYADSVKGRFTISRDNAKNTVYLQMNSLKPEDTAVYYCAAANTQSPGYDYWGQGTQVTVSS,low polyreactivity
15,QVQLVESGGGLVQAGGSLRLSCAASGSTFPYNAMGWYRQAPGKEWELVAAISQSGGSTYYADSVKGRFTISRDNAKNTVYLQMNSLKPEDTAVYYCATDQSLLAHYDYWGQGTQVTVSS,low polyreactivity
16,QVQLVESGGGLVQAGGSLRLSCAASGSTFPYNVMGWYRQAPGKEREFVAAISSSSGSTYYADSVKGRFTISRDNAKNTVYLQMNSLKPEDTAVYYCARRHPRQRQDGKVDYWGQGTQVTVSS,low polyreactivity
17,QVQLVESGGGLVQAGGSLRLSCAASGSTFPYVMGWSRQAPGKERELVAAISQRTGSTYYADSVKGRFTSSRDNAKNTVYLQMNSLKPEDTAVYYCAKPGYLRPSRYDYWGQGTQVTVSS,high polyreactivity
18,QVQLVESGGGLVQAGGSLRLSCAASGSTFPYVMGWYRQAPGKERELVAAISWSGTSTYYADSVKGRFTISRDNAKNTVYLQMNSLKPEDTAVYYCNVVYRVVSPSGGGYWGQGTQVTVSS,high polyreactivity
19,QVQLVESGGGLVQAGGSLRLSCAASGSTFPYYALGLYRQAPGKERELVAAISRGGGITYYADSVKGRFSISRDNAKNTVYLQMNCLKPEDTAVYYCAAYTAAEQGYNYWGQGTQVTVSS,high polyreactivity
20,QVQLVESGGGLVQAGGSLRLSCAASGSTFPYYAMGWYRQAPWKERELVAAIRRRTGSTHYADSVKGRFSISRDNAMNTVYLQMNSLKQEDTAFYYCAADVSYRGNGHGYWGQGTQVNVSS,low polyreactivity
21,QVQLVESGGGLVQAGGSLRLSCAASGSTFPYYAMGWYRQEPGKERELVASIRKRGGGTYYADSVKGRFTISRDNAKNTVYLQMNSLKPEDTAVYYCAVRVYQFRYTGYDYWGQGTQVTVSS,high polyreactivity

row,Sequence,polyreactivity (PSR sort gate)
1,QVQLVESGGGLVQAGGSLRLSCAASGSTFPYYTMGWYRQAPGKERELVAAITWRGGRTYYADSVKGRFTISRDNAKNTVYLQMNSLKPEDTAVYYCAAKQKHTQQTGWKYEYWGQGTQVTVSS,high polyreactivity
2,QVQLVESGGGLVQAGGSLRLSCAASGSTFPYYVMGWYRQAPGKERELVASIRSNSGRTYYADSVKGRFTISRDNAKNTVYLQMNSLKPEDTAVYYCNAGVPRYAYTYVKGYYWGQGTQVTVSS,high polyreactivity
3,QVQLVESGGGLVQAGGSLRLSCAASGSTFQFYAMGWYRQAPGKEREFVAAIDFGGAGTYYADSVKGRFTISRDTAKNTVYLQMNSLKPEDTAVYYCNARDGVTSEFDYWGQGTQVTVSS,low polyreactivity
4,QVQLVESGGGLVQAGGSLRLSCAASGSTFQFYAMGWYRQAPGKERELVAAIRSSDDSTYYADSVKGRFTISRDNAKNTVYLQMNSLKPEDTAVYYCAAVQDYYGVWYDYWGQGTQVTVSS,high polyreactivity
5,QVQLVESGGGLVQAGGSLRLSCAASGSTFQFYAMGWYRQAPGKERELVAAISVSGDRTYYADSVKARFTISRDNAKNTVYLQMNSLKPEDSAVYYCAARYGPFKRRFDYWGLGTQVTVSS,high polyreactivity
6,QVQLVESGGGLVQAGGSLRLSCAASGSTFQGNAMGWYSQAPGKERELVAAISRSGGSTYADSVKGRFTISRDNAKNTVYLQMNSLKPEDTAVYYCAAYSGVGYLWFDYWGQGTQVTVSS,low polyreactivity
7,QVQLVESGGGLVQAGGSLRLSCAASGSTFQGYAMGWYRPAPGTERELVAAINYSGGSTYYADSVKGRFTISRDNAKNTVYVLMNSLKPEDTAVYYCAVKLRSRAGTSYGYWGQGTQVTVSS,high polyreactivity
8,QVQLVESGGGLVQAGGSLRLSCAASGSTFQGYAMGWYRQAPGKEREFVAAISRSGGRTYYADSVKGRFTISRDNAKNTVYLQMNSLKPEDTAVYYCAALPYWEYGYWGQGTQVTVSS,high polyreactivity
9,QVQLVESGGGLVQAGGSLRLSCAASGSTFQGYAMGWYRQAPGKERELVAVINRSGTNTYYADSVKGRFTISRDNAKNTVYLQMNSLKPEDTAVYYCNAQPSSKPPTYYYWGQGTQVTVSS,high polyreactivity
10,QVQLVESGGGLVQAGGSLRLSCAASGSTFQIYTMGWYRQAPGKERELVAAITNGGGSTYYADSVKGRFTISRDNAKNTVYLQMNSLKPEDTAVYYCAAEQRYPLIILYDYWGQGTHVTVSS,low polyreactivity
11,QVQLVESGGGLVQAGGSLRLSCAASGSTFQIYVKGWYRQAPGKERELVAAISGSGVRTYYADSVKGRFTISRDTAKNTVYIQMHSLKPEDTAVYYCAVDYKSDWAYDYWGQGTQVTVSS,high polyreactivity
12,QVQLVESGGGLVQAGGSLRLSCAASGSTFQLYAMGWYRQAPGKEREFVAAIRGRGGNTYADSVKGRFTISRDNAKNTVFLQMNSLKPEDTAVYYCAAPLLRDLRSPYSYNYWGQGTQVTVSS,low polyreactivity
13,QVQLVESGGGLVQAGGSLRLSCAASGSTFQPYAMGWYRQAAGNEREFVATISGSAGSTNYADSVKGRFTTSRDNAKSTVYLQMNSLKPEDTALYYCNALYRYLYRSGDYWGQGNQVTVSS,low polyreactivity
14,QVQLVESGGGLVQAGGSLRLSCAASGSTFQQYAMGWYRQAPGKEREFVARISYGGGSTYYADSVKGRFTISRDNAKNTVYLQMNSLKPEDTAVYYCNAVRKGYYRWVFQNRYYYWGQGTQVTVSS,high polyreactivity
15,QVQLVESGGGLVQAGGSLRLSCAASGSTFQQYAMGWYRQAPGKERELVAAITGSTGSTYYADSVKGRFTISRDNAKNTVYLQMNSLKPEDTAVYYCNAVRYSRYYRKYNYWGQGTQVTVSS,high polyreactivity
16,QVQLVESGGGLVQAGGSLRLSCAASGSTFQRNTMGWYRQAPGKERELVADITWSGGNTYYADSVKGRFTISRDNAKNTVYLQMNSLKPEDTAVYYCAAQNVRVGWHASTSYPCPLDYWGPGTQVTVSS,low polyreactivity
17,QVQLVESGGGLVQAGGSLRLSCAASGSTFQRYAMGGSRQAPGKERELVAAITAGGSTYYADSVKGRFTISRDNAKNTVYLQLNSLKPEDTAVYYCNAAWFYRYGYWGQGTQVTVSS,high polyreactivity
18,QVQLVESGGGLVQAGGSLRLSCAASGSTFQRYAMGWYRQAPGKERELVASISTSGGSTYYAHSVKGRFTISRDNAKNTVYLQMNSLKPEDTAVYYCAAQGWSRQVREGWIKRDYWGQGTQVTVSS,high polyreactivity
19,QVQLVESGGGLVQAGGSLRLSCAASGSTFQRYVMGWYRPAPGKERELVAAITRTGASTYYADSVKGRFTISRDYAKNTVDLQMNSRKPEDTAGYYCAARYPLGSYTYDFWGQGTQVTVSS,high polyreactivity
20,QVQLVESGGGLVQAGGSLRLSCAASGSTFQSNAMGGYRQAPGKERELVAAISSSAGTTFYADSVKGRFTISRDNAKNTVYLQMNSLKPEDTAVYYCAAEYSRSYIEYDYWGQGTQVTVSS,low polyreactivity
